Read-outs that look alike come from different tables or passages of the source.
Legend:
cryo-EM structure [1] = molecular target: the molecule itself; experiment: cryo-EM structure
cryo-EM structure [2] = molecular target: the molecule itself; experiment: cryo-EM structure; remark: listed apart in the source

B1: FliL of Borrelia burgdorferi (BbFliL) (natural protein, UniProt Q57442 1-178, looked up)
chain: MPNKDDDNLDMGDSNVSRKGGLLPDIIIKILQILAIGIFTVAIMIIVSYFVSKMVVSQSGAPSDFPVFSNEYLGKPPMLIWYESIDEIRGNTLDVPPKTFVVKLALGYAENNVNILNELGRQKVRLKDIIREYFSQRTGQEIKNESQIKAEIKARINSILRNGEIKEIALTQIDIFDM
- stoichiometry N (cryo-EM structure [1]): 4
- stoichiometry N (cryo-EM structure [2]): 10

— publication PMC8931381 (Proceedings of the National Academy of Sciences of the …, 2022)
